Columns and labels:
Assay in all cases: IEDB peptide-MHC binding, purified MHC/competitive/radioactivity; filed as Kd, often an IC50 or EC50 that approximates it; ≥ and ≤ were set here for values at or beyond the usual limits of such assays
HLA-A*03:01 = target: HLA-A*03:01
HLA-A*33:01 = target: HLA-A*33:01
HLA-A*11:01 = target: HLA-A*11:01
HLA-A*68:01 = target: HLA-A*68:01
HLA-A*31:01 = target: HLA-A*31:01
[1] = source organism: SARS coronavirus Tor2
[2] = source organism: Vaccinia virus WR
[3] = source organism: Dengue virus 2 Jamaica/1409/1983
[4] = source organism: Dengue virus 2 Peru/IQT2913/1996
[5] = source organism: Dengue virus 3 Martinique/1243/1999
[6] = source organism: Lymphocytic choriomeningitis virus (strain Armstrong)
[7] = source organism: Mammarenavirus machupoense
[8] = source organism: Vaccinia virus Copenhagen
[9] = source organism: Dengue virus 1 Brazil/97-11/1997

Sequence	Kd (HLA-A*03:01; [2])	Kd (HLA-A*33:01; [2])	Kd (HLA-A*11:01; [2])	Kd (HLA-A*68:01; [2])	Kd (HLA-A*31:01; [2])	other results
AIYVFCISLK						Kd (HLA-A*03:01; [1]): 161 nM; Kd (HLA-A*33:01; [1]): ≥ 48900 nM; Kd (HLA-A*11:01; [1]): 489 nM; Kd (HLA-A*68:01; [1]): 8800 nM; Kd (HLA-A*31:01; [1]): 11300 nM
ALDGTFQRK	12.5 nM	≥ 77700 nM	30.4 nM	≥ 47200 nM	≥ 37900 nM	
ALNDMGKVRK						Kd (HLA-A*03:01; [3]): 36.5 nM
ALNDTWKIEK						Kd (HLA-A*03:01; [4]): 60.3 nM; Kd (HLA-A*11:01; [4]): 398 nM
AMCTNTFVLK						Kd (HLA-A*03:01; [5]): 20.3 nM; Kd (HLA-A*11:01; [5]): 20.9 nM
AQRRGRVGR						Kd (HLA-A*31:01; [5]): 13.2 nM
ATDYIASGQR	148 nM	2110 nM	73.2 nM	192 nM	197 nM	
ATEGALNTPK						Kd (HLA-A*03:01; [1]): 82 nM; Kd (HLA-A*33:01; [1]): ≥ 44600 nM; Kd (HLA-A*11:01; [1]): 4.73 nM; Kd (HLA-A*68:01; [1]): 220 nM; Kd (HLA-A*31:01; [1]): 2820 nM
AVVYRGTTTY						Kd (HLA-A*03:01; [1]): 123 nM; Kd (HLA-A*33:01; [1]): 19300 nM; Kd (HLA-A*11:01; [1]): 492 nM; Kd (HLA-A*68:01; [1]): 861 nM; Kd (HLA-A*31:01; [1]): 5040 nM
CANGWIQYDK	888 nM	≥ 27000 nM	599 nM	19.1 nM	73.6 nM	
CSRMLDTSEK	1010 nM	≥ 70000 nM	1610 nM	7700 nM	1560 nM	
DFAVSKGFFK						Kd (HLA-A*03:01; [1]): 768 nM; Kd (HLA-A*33:01; [1]): 50.1 nM; Kd (HLA-A*11:01; [1]): 107 nM; Kd (HLA-A*68:01; [1]): 16.8 nM; Kd (HLA-A*31:01; [1]): 1040 nM
DFWRLYNSLK	1650 nM	3.13 nM	1010 nM	730 nM	2570 nM	
DHVSTLLTWH						Kd (HLA-A*03:01; [6]): ≥ 22400 nM; Kd (HLA-A*33:01; [6]): ≥ 70000 nM; Kd (HLA-A*11:01; [6]): ≥ 69700 nM; Kd (HLA-A*68:01; [6]): 12300 nM; Kd (HLA-A*31:01; [6]): 8610 nM
DIALALEQY	≥ 78000 nM	≥ 23900 nM	≥ 77900 nM	364 nM	10500 nM	
DLTQIFEVY	11100 nM	938 nM	463 nM	857 nM	1370 nM	
DTSASEIKDR	14800 nM	835 nM	1130 nM	17.6 nM	7970 nM	
DTSYYVKEY	≥ 78000 nM	≥ 77700 nM	14300 nM	69.1 nM	≥ 77900 nM	
EIINDKGKQY	≥ 70100 nM	≥ 70000 nM	≥ 69800 nM	3990 nM	12800 nM	
EKFGHLCKYH						Kd (HLA-A*03:01; [7]): ≥ 70000 nM; Kd (HLA-A*33:01; [7]): ≥ 70000 nM; Kd (HLA-A*11:01; [7]): ≥ 69700 nM; Kd (HLA-A*68:01; [7]): ≥ 70100 nM; Kd (HLA-A*31:01; [7]): ≥ 70000 nM

Sequence	Kd (HLA-A*03:01; [2])	Kd (HLA-A*33:01; [2])	Kd (HLA-A*11:01; [2])	Kd (HLA-A*68:01; [2])	Kd (HLA-A*31:01; [2])	other results
EMVDELVTR	≥ 78000 nM	94.3 nM	≥ 40900 nM	2.54 nM	28.5 nM	
ESNILDIDLR						Kd (HLA-A*68:01; [3]): 160 nM
EVRIPVDLVK	≥ 64800 nM	17000 nM	1660 nM	656 nM	9020 nM	
EVYTQLCDHR						Kd (HLA-A*68:01; [5]): 14.3 nM
FAYVMNIER	4340 nM	12.5 nM	65.5 nM	0.38 nM	37.2 nM	
FFTYLCGFIK						Kd (HLA-A*03:01; [1]): 440 nM; Kd (HLA-A*33:01; [1]): 1200 nM; Kd (HLA-A*11:01; [1]): 963 nM; Kd (HLA-A*68:01; [1]): 206 nM; Kd (HLA-A*31:01; [1]): 612 nM
FMVSVSDFR	3050 nM	219 nM	493 nM	0.398 nM	67.2 nM	
GAAVTLNRIK	1750 nM	≥ 70000 nM	1040 nM	8350 nM	≥ 40600 nM	
GFPFNKWGK						Kd (HLA-A*03:01; [1]): ≥ 20800 nM; Kd (HLA-A*33:01; [1]): 17700 nM; Kd (HLA-A*11:01; [1]): 655 nM; Kd (HLA-A*68:01; [1]): 17400 nM; Kd (HLA-A*31:01; [1]): 721 nM
GFTATICLK						Kd (HLA-A*03:01; [8]): 1890 nM; Kd (HLA-A*33:01; [8]): 467 nM; Kd (HLA-A*11:01; [8]): 40.3 nM; Kd (HLA-A*68:01; [8]): 81.5 nM; Kd (HLA-A*31:01; [8]): 1730 nM
GIFTTNIWLK						Kd (HLA-A*03:01; [9]): 14.3 nM; Kd (HLA-A*11:01; [9]): 12.5 nM
GINNVQSLIK	170 nM	≥ 70000 nM	17.2 nM	10300 nM	16100 nM	
GMNDYLGIFK	2.86 nM	5970 nM	4.28 nM	572 nM	390 nM	
GQGQNSADPK						Kd (HLA-A*33:01; [1]): ≥ 70000 nM; Kd (HLA-A*68:01; [1]): ≥ 70200 nM
GSCVTTMAK						Kd (HLA-A*11:01; [3]): 115 nM
GVIDTMRIY	1680 nM	11400 nM	85.7 nM	3020 nM	991 nM	
GVTFQGKFKK						Kd (HLA-A*03:01; [1]): 761 nM; Kd (HLA-A*33:01; [1]): ≥ 24100 nM; Kd (HLA-A*11:01; [1]): 536 nM; Kd (HLA-A*68:01; [1]): 1860 nM; Kd (HLA-A*31:01; [1]): 2840 nM
HLTKTDKKY	≥ 22900 nM	≥ 41900 nM	1970 nM	7290 nM	9480 nM	
HTWQKQTQR						Kd (HLA-A*33:01; [5]): 57.8 nM; Kd (HLA-A*31:01; [5]): 2.88 nM
IALGLMALK						Kd (HLA-A*11:01; [5]): 42.7 nM

— the Immune Epitope Database (IEDB)
